system: Escherichia coli TOP10; test: shrunken log2 fold change of peptide-encoding DNA abundance (4.5 h post-induction vs induction); higher = less antimicrobial activity (less host growth inhibition); conditions: time post-induction: 4.5 h; library: site-saturation at positions 5, 18, 19, 20
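Also: peptides expressed intracellularly from a pBAD plasmid library in pooled LB shake-flask culture, induced with 0.3% L-arabinose, DNA abundance read by NGS, three biological replicates, DESeq2 with apeglm shrinkage.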

Sequence | shrunken log2 fold change
RRIRERPPRLPRPRPRPSNFPRP | -0.909
RRIRTRPPRLPRPRPRPFVWPRP | 0.00322
RRIRHRPPRLPRPRPRPKAEPRP | 0.0672
RRIRYRPPRLPRPRPRPFGEPRP | -0.00973
RRIRDRPPRLPRPRPRPHCNPRP | -0.226
RRIRPRPPRLPRPRPRPPNWPRP | 0.534
RRIRFRPPRLPRPRPRPHADPRP | 0.0798
RRIRYRPPRLPRPRPRPHVSPRP | 0.0324
RRIRDRPPRLPRPRPRPLNNPRP | -0.305
RRIRKRPPRLPRPRPRPGKDPRP | 0.173
RRIRGRPPRLPRPRPRPAKHPRP | 0.209
RRIRERPPRLPRPRPRPIANPRP | 0.158
RRIRPRPPRLPRPRPRPRIMPRP | -0.0771
RRIRHRPPRLPRPRPRPTVPPRP | -0.0133
RRIRERPPRLPRPRPRPPDSPRP | -0.303
RRIRIRPPRLPRPRPRPLFRPRP | -0.429
RRIRHRPPRLPRPRPRPHPTPRP | -0.0838
RRIRLRPPRLPRPRPRPSLTPRP | -0.0866
RRIRRRPPRLPRPRPRPEAVPRP | 1.53
RRIRSRPPRLPRPRPRPVRQPRP | 0.19
RRIRVRPPRLPRPRPRPLVHPRP | -0.145
RRIRMRPPRLPRPRPRPLCPPRP | -0.0953

Sequence | shrunken log2 fold change
RRIRIRPPRLPRPRPRPQMLPRP | -0.633
RRIRNRPPRLPRPRPRPYTIPRP | -0.138
RRIRGRPPRLPRPRPRPTEDPRP | 1.2
RRIRKRPPRLPRPRPRPGAPPRP | 0.85
RRIRMRPPRLPRPRPRPYPAPRP | -0.246
RRIRHRPPRLPRPRPRPPCWPRP | 0.142
RRIRWRPPRLPRPRPRPKHEPRP | 0.288
RRIRVRPPRLPRPRPRPGMEPRP | 0.232
RRIRLRPPRLPRPRPRPIAGPRP | -0.086
RRIRLRPPRLPRPRPRPYSDPRP | -0.0348
RRIRKRPPRLPRPRPRPYRYPRP | -0.14
RRIRSRPPRLPRPRPRPLAVPRP | 0.0333
RRIRYRPPRLPRPRPRPGLYPRP | -0.486
RRIRRRPPRLPRPRPRPHALPRP | 0.0116
RRIRHRPPRLPRPRPRPSKSPRP | -0.143
RRIRSRPPRLPRPRPRPIPWPRP | -0.121
RRIRQRPPRLPRPRPRPSRQPRP | -0.101
RRIRRRPPRLPRPRPRPYYVPRP | -0.427
RRIRQRPPRLPRPRPRPIGKPRP | 0.0819
RRIRSRPPRLPRPRPRPWPYPRP | -0.03
RRIRVRPPRLPRPRPRPYTPPRP | -0.645
RRIRSRPPRLPRPRPRPVTTPRP | -0.163

Sequence | shrunken log2 fold change
RRIRGRPPRLPRPRPRPRFMPRP | 0.172
RRIRVRPPRLPRPRPRPAKMPRP | 0.0161
RRIRLRPPRLPRPRPRPPRPPRP | 0.782
RRIRLRPPRLPRPRPRPCQCPRP | -0.672
RRIRHRPPRLPRPRPRPNNPPRP | -0.874
RRIRNRPPRLPRPRPRPIHVPRP | -0.224
RRIRSRPPRLPRPRPRPDSPPRP | 0.242
RRIRGRPPRLPRPRPRPQDDPRP | 0.114
RRIRERPPRLPRPRPRPRAWPRP | 0.195
RRIRCRPPRLPRPRPRPRPMPRP | 0.443
RRIRTRPPRLPRPRPRPEKVPRP | -0.292
RRIRYRPPRLPRPRPRPPGNPRP | -0.0342
RRIRLRPPRLPRPRPRPGDVPRP | 0.0737
RRIRNRPPRLPRPRPRPYKEPRP | -0.0525
RRIRIRPPRLPRPRPRPRPTPRP | 0.152
RRIRWRPPRLPRPRPRPQGQPRP | 0.203
RRIRRRPPRLPRPRPRPYKNPRP | -0.47
RRIRRRPPRLPRPRPRPAHIPRP | 0.0825
RRIRCRPPRLPRPRPRPSLSPRP | -0.429
RRIRDRPPRLPRPRPRPAILPRP | 0.099
RRIRHRPPRLPRPRPRPVPMPRP | 0.0504
RRIRFRPPRLPRPRPRPTPHPRP | 0.333

Sequence | shrunken log2 fold change
RRIRTRPPRLPRPRPRPYHQPRP | -0.182
RRIRHRPPRLPRPRPRPRANPRP | 0.177
RRIRTRPPRLPRPRPRPLRLPRP | 0.219
RRIRMRPPRLPRPRPRPTKFPRP | 0.339
RRIRCRPPRLPRPRPRPRTYPRP | -0.447
RRIRYRPPRLPRPRPRPKEGPRP | -0.186
RRIRKRPPRLPRPRPRPFKSPRP | -0.294
RRIRTRPPRLPRPRPRPNMDPRP | -0.508
RRIRNRPPRLPRPRPRPQGCPRP | 0.0942
RRIRKRPPRLPRPRPRPHWTPRP | -0.0277
RRIRDRPPRLPRPRPRPALAPRP | 1.32
RRIRGRPPRLPRPRPRPMWCPRP | 0.667
RRIRVRPPRLPRPRPRPTDWPRP | 0.255
RRIRKRPPRLPRPRPRPQQMPRP | 0.313
RRIRLRPPRLPRPRPRPCALPRP | -0.0607
RRIRERPPRLPRPRPRPNHLPRP | 0.0486
RRIRYRPPRLPRPRPRPWIMPRP | -0.253
RRIRRRPPRLPRPRPRPEMFPRP | -0.151
RRIRWRPPRLPRPRPRPKRDPRP | 0.696
RRIRWRPPRLPRPRPRPAGSPRP | -0.176
RRIRNRPPRLPRPRPRPGWFPRP | -0.00934
RRIRMRPPRLPRPRPRPQKDPRP | 0.0308

Sequence | shrunken log2 fold change
RRIRARPPRLPRPRPRPNSTPRP | 0.0264
RRIRNRPPRLPRPRPRPFFHPRP | -0.446
RRIRQRPPRLPRPRPRPTCVPRP | -0.442
RRIRERPPRLPRPRPRPMRPPRP | 0.772
RRIRMRPPRLPRPRPRPTCPPRP | 0.128
RRIRDRPPRLPRPRPRPCSCPRP | 0.173
RRIRLRPPRLPRPRPRPESIPRP | 0.0419
RRIRPRPPRLPRPRPRPPIMPRP | -0.0982
RRIRMRPPRLPRPRPRPTECPRP | 0.0996
RRIRVRPPRLPRPRPRPDYYPRP | -0.679
RRIRGRPPRLPRPRPRPHDSPRP | -0.0179
RRIRHRPPRLPRPRPRPKASPRP | -0.0128
RRIRPRPPRLPRPRPRPWMRPRP | 0.715
RRIRIRPPRLPRPRPRPNQSPRP | -0.812
RRIRLRPPRLPRPRPRPFEHPRP | 0.0204
RRIRRRPPRLPRPRPRPNGKPRP | 0.02
RRIRARPPRLPRPRPRPYKIPRP | -0.455
RRIRIRPPRLPRPRPRPLFVPRP | -0.642
RRIRVRPPRLPRPRPRPPAFPRP | 0.068
RRIRARPPRLPRPRPRPRHFPRP | 0.157
RRIRMRPPRLPRPRPRPLTLPRP | -0.1

— the supplement of paper PMC9112550, “Optimization of the antimicrobial peptide Bac7 by deep mutational scanning” (BMC Biology, 2022)
